# Data as given in patent US20050014193A1, “Identification of target-specific folding sites in peptides and proteins” (priority 2003, published 2005).
# Square brackets hold non-standard residues; d marks the D form. Ends that are not written are not given here. dChg = N[C@@H](C(=O)O)C1CCCCC1; Chg = N[C@H](C(=O)O)C1CCCCC1; Orn = NCCC[C@H](N)C(=O)O; Dap = NC[C@H](N)C(=O)O; Sar = CNCC(=O)O
# How the values were obtained:
# vasopressin-1 receptor = target: T1, vasopressin-1 receptor (Rattus norvegicus, UniProt P30560); experiment: 3H-vasopressin-1 antagonist binding inhibition, rat liver cell membranes; conditions: Re-complexed
# T1 construct: cell membranes prepared from rat liver; from tissue; host or cells: rat liver membranes
# Description: The screening of compounds for vasopressin-1 receptor was performed using cell membranes prepared from rat liver. The assay was essentially performed as described above for the oxytocin receptor assay. In this assay 2-4 nM ^3H-vasopressin-1 antagonist (obtained from Perkin Elemer-NEN Life Sciences) was used as the radiotracer and Arg^8-vasopressin (1 μM final concentration in the assay) was used to determine non-specific binding. The assay was performed in triplicates. Activity profile for the test compounds were generated by their ability to inhibit specific binding of the radiotracer to its receptor.
# oxytocin receptor = target: T2, oxytocin receptor (Rattus norvegicus, UniProt P70536); experiment: 3H-oxytocin binding inhibition, rat uterus cell membranes; conditions: for % Inhibition at 1 μM Oxytocin Receptor (Table 30) / % Inhibition at 1 μM Oxytocin Receptor (Table 29): rat uterus membranes, Re-complexed; for activity at oxytocin receptor: within the Table 30 series
# T2 construct: cell membranes prepared from rat uterus; from tissue; host or cells: rat uterus membranes
# T2 sequence (P70536 1-388): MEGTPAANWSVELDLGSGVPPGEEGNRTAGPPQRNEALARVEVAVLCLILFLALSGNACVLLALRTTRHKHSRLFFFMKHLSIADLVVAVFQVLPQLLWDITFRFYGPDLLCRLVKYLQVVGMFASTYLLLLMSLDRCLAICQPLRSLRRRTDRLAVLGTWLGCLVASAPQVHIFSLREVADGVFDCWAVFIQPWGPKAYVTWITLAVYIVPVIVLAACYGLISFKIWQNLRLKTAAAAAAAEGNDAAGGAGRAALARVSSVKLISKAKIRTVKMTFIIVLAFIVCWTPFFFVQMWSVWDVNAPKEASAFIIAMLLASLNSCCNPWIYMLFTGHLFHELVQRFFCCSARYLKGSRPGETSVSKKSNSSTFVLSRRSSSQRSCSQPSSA
# Description: The screening of metallopeptides for binding to oxytocin receptor was done using cell membranes prepared from rat uterus. […] The membrane preparations (10-50 μg/well) were incubated with […] ^3H-oxytocin in HEPES Buffer containing 0.2% bovine serum albumin along with a test compound (1 μM final assay concentration) for 2 hours at 4° C. Non-specific binding was determined by addition of 10^−6 M oxytocin instead of the test compound. After incubation, the membranes were filtered and washed three times with ice-cold PBS. The membranes were air-dried and punched directly into scintillation vials. After addition of the scintillation cocktail, the vials were capped and gently shaken for 12 hours to dissolve the radioactivity contained in the filters. The vials were then read for tritium counts in a scintillation counter. Specific binding was determined as the radioactivity in wells containing ^3H-oxytocin alone minus the radioactivity in wells containing 10^−6 M oxytocin. The assay was performed in triplicates. The activity profile for the test compounds were generated by their ability to inhibit specific binding of the radiotracer to its receptor.
# angiotensin-II receptor = target: T3, angiotensin-II receptor (Homo sapiens, UniProt P30556); experiment: 125I-Tyr4,Sar1,Ile8-Angiotensin II binding inhibition, human neuroblastoma (KAN-TS) cell membranes; conditions: for % Inhibition at 1 μM (Angiotensin Receptor): KAN-TS cell membranes, Re-complexed
# T3 construct: cell membranes obtained from human neuroblastoma cells (KAN-TS); endogenous in cells; host or cells: KAN-TS human neuroblastoma cells (membranes)
# T3 sequence (P30556 1-359): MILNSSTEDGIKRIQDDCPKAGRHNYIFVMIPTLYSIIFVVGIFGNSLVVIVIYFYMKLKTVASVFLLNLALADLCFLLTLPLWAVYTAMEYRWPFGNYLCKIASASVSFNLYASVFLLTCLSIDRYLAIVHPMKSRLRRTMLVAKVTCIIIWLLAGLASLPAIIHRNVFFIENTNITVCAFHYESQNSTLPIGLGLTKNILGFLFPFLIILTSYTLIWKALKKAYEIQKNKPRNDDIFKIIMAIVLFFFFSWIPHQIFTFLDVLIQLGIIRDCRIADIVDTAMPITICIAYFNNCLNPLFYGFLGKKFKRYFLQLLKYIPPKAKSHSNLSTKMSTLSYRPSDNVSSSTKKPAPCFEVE
# Description: The screening of compounds for binding to the angiotensin-II receptor was performed using cell membranes obtained from human neuroblastoma cells (KAN-TS). The assay was performed in triplicates, generally as described in Example 4 for oxytocin, except for measurement of receptor bound radioactivity. For angiotensin, a radioiodinated tracer ligand was used (instead of a tritiated ligand), which radioiodinated tracer facilitated direct measurement of bound radioactivity using a gamma counter. A final 1-3 nM concentration of ^125I-Tyr^4, Sar^1, Ile^8-Angiotensin II ligand (obtained from Perkin Elemer-NEN Life Sciences) was used as radiotracer and angiotensin-II (1 μM final assay concentration) was used to measure non-specific binding. After filtration of the incubation medium, followed by washings, drying the filters and punching the filters into test tubes, the filters were counted for radioactivity in a gamma counter. An activity profile for the test compounds was generated by ability to inhibit specific binding of the radiotracer to its receptor.
# T1 sequence (P30560 whole entry): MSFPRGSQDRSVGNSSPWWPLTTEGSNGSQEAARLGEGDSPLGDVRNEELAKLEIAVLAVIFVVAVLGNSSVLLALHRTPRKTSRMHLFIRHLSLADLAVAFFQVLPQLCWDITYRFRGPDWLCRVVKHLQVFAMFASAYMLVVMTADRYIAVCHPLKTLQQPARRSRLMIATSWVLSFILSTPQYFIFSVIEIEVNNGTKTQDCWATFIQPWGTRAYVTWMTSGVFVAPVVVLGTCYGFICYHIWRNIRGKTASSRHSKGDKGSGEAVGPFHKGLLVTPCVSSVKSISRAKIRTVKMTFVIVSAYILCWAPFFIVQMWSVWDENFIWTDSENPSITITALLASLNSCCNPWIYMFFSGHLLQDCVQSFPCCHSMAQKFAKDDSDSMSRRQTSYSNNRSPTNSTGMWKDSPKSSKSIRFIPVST
Substance,% Inhibition at 1 μM Vasopressin-1 Receptor (Table 30) (vasopressin-1 receptor) [%],% Inhibition at 1 μM Oxytocin Receptor (Table 29) (oxytocin receptor) [%],further results
Ala-Tyr-Cys-Ile-Gln-Asn-Ala-Pro-Leu-Gly-NH2 (AYCIQNAPLG-NH2; not fully specified (bridges); printed as Ala-Tyr-Cys-Ile-Gln-Asn-Ala-Pro-Leu-Gly-NH2; also: oxorhenium(V) N3S1 metal chelate (Re=O)) [SEQ ID NO:158],1,–,% Inhibition at 1 μM Oxytocin Receptor (Table 30) (oxytocin receptor): 6%
Ala-Tyr-Ile-Cys-Gln-Asn-Ala-Pro-Leu-Gly-NH2 (AYICQNAPLG-NH2; not fully specified (bridges); printed as Ala-Tyr-Ile-Cys-Gln-Asn-Ala-Pro-Leu-Gly-NH2; also: oxorhenium(V) N3S1 metal chelate (Re=O)) [SEQ ID NO:157],0,–,% Inhibition at 1 μM Oxytocin Receptor (Table 30) (oxytocin receptor): 0%
Ala-Tyr-Ile-Gln-Asn-Ala-Ala-Cys-Leu-Gly-NH2 (AYIQNAACLG-NH2; not fully specified (bridges); printed as Ala-Tyr-Ile-Gln-Asn-Ala-Ala-Cys-Leu-Gly-NH2; also: oxorhenium(V) N3S1 metal chelate (Re=O)) [SEQ ID NO:152],1,–,% Inhibition at 1 μM Oxytocin Receptor (Table 30) (oxytocin receptor): 0%
Ala-Tyr-Ile-Gln-Asn-Ala-Ala-Leu-Cys-Gly-NH2 (AYIQNAALCG-NH2; not fully specified (bridges); printed as Ala-Tyr-Ile-Gln-Asn-Ala-Ala-Leu-Cys-Gly-NH2; also: oxorhenium(V) N3S1 metal chelate (Re=O)) [SEQ ID NO:151],0,–,% Inhibition at 1 μM Oxytocin Receptor (Table 30) (oxytocin receptor): 0%
Ala-Tyr-Ile-Gln-Asn-Ala-Ala-Leu-Gly-Cys-NH2 (AYIQNAALGC-NH2; not fully specified (bridges); printed as Ala-Tyr-Ile-Gln-Asn-Ala-Ala-Leu-Gly-Cys-NH2; also: oxorhenium(V) N3S1 metal chelate (Re=O)) [SEQ ID NO:150],0,–,% Inhibition at 1 μM Oxytocin Receptor (Table 30) (oxytocin receptor): 0%
Ala-Tyr-Ile-Gln-Asn-Ala-Cys-Ala-Leu-Gly-NH2 (AYIQNACALG-NH2; not fully specified (bridges); printed as Ala-Tyr-Ile-Gln-Asn-Ala-Cys-Ala-Leu-Gly-NH2; also: oxorhenium(V) N3S1 metal chelate (Re=O)) [SEQ ID NO:154],0,–,activity at oxytocin receptor (oxytocin receptor): also active
Ala-Tyr-Ile-Gln-Asn-Ala-Cys-Pro-Leu-Gly-NH2 (AYIQNACPLG-NH2; not fully specified (bridges); printed as Ala-Tyr-Ile-Gln-Asn-Ala-Cys-Pro-Leu-Gly-NH2; also: oxorhenium(V) N3S1 metal chelate (Re=O)) [SEQ ID NO:153],0,–,% Inhibition at 1 μM Oxytocin Receptor (Table 30) (oxytocin receptor): 2%
Ala-Tyr-Ile-Gln-Asn-Ala-Pro-Leu-Gly-Cys-NH2 (AYIQNAPLGC-NH2; not fully specified (bridges); printed as Ala-Tyr-Ile-Gln-Asn-Ala-Pro-Leu-Gly-Cys-NH2; also: oxorhenium(V) N3S1 metal chelate (Re=O)) [SEQ ID NO:149],0,–,% Inhibition at 1 μM Oxytocin Receptor (Table 30) (oxytocin receptor): 6%
Ala-Tyr-Ile-Gln-Asn-Cys-Ala-Pro-Leu-Gly-NH2 (AYIQNCAPLG-NH2; not fully specified (bridges); printed as Ala-Tyr-Ile-Gln-Asn-Cys-Ala-Pro-Leu-Gly-NH2; also: oxorhenium(V) N3S1 metal chelate (Re=O)) [SEQ ID NO:155],0,–,activity at oxytocin receptor (oxytocin receptor): maximal activity
Ala-Tyr-Ile-Gln-Cys-Asn-Ala-Pro-Leu-Gly-NH2 (AYIQCNAPLG-NH2; not fully specified (bridges); printed as Ala-Tyr-Ile-Gln-Cys-Asn-Ala-Pro-Leu-Gly-NH2; also: oxorhenium(V) N3S1 metal chelate (Re=O)) [SEQ ID NO:156],0,–,activity at oxytocin receptor (oxytocin receptor): also active
Caca-D-Trp-Ile-Cys-Thr-Dap-Ala-Pro-Orn-NH2,–,0,–
Caca-D-Trp-Ile-Thr-Cys-Dap-Ala-Pro-Orn-NH2,–,0,% Inhibition at 1 μM Vasopressin-1 Receptor (Table 29) (vasopressin-1 receptor): 0%
Caca-D-Trp-Ile-Thr-Dap-Ala-Ala-Cys-Orn-NH2,–,0,% Inhibition at 1 μM Vasopressin-1 Receptor (Table 29) (vasopressin-1 receptor): 0%
Caca-D-Trp-Ile-Thr-Dap-Ala-Ala-Orn-Cys-NH2,–,0,–
Caca-D-Trp-Ile-Thr-Dap-Ala-Cys-Ala-Orn-NH2,–,0,% Inhibition at 1 μM Vasopressin-1 Receptor (Table 29) (vasopressin-1 receptor): 0%
Caca-D-Trp-Ile-Thr-Dap-Ala-Cys-Pro-Orn-NH2,–,0,% Inhibition at 1 μM Vasopressin-1 Receptor (Table 29) (vasopressin-1 receptor): 0%
Caca-D-Trp-Ile-Thr-Dap-Cys-Ala-Pro-Orn-NH2,–,9,–
Pmp-D-Trp-Cys-Ile-Thr-Dap-Ala-Pro-Orn-NH2,–,0,–
Sar-Arg-Cys-Val-Tyr-Ile-His-Pro-Thr ([Sar]RCVYIHPT; not fully specified (bridges); printed as Sar-Arg-Cys-Val-Tyr-Ile-His-Pro-Thr; also: oxorhenium(V) N3S1 metal chelate (Re=O)) [SEQ ID NO:165],–,–,% Inhibition at 1 μM (Angiotensin Receptor) (angiotensin-II receptor): 1%
Sar-Arg-Val-Cys-Tyr-Ile-His-Pro-Thr ([Sar]RVCYIHPT; not fully specified (bridges); printed as Sar-Arg-Val-Cys-Tyr-Ile-His-Pro-Thr; also: oxorhenium(V) N3S1 metal chelate (Re=O)) [SEQ ID NO:164],–,–,% Inhibition at 1 μM (Angiotensin Receptor) (angiotensin-II receptor): 1%
Sar-Arg-Val-Tyr-Ile-His-Cys-Gly-Thr ([Sar]RVYIHCGT; not fully specified (bridges); printed as Sar-Arg-Val-Tyr-Ile-His-Cys-Gly-Thr; also: oxorhenium(V) N3S1 metal chelate (Re=O)) [SEQ ID NO:166],–,–,percent inhibition at angiotensin receptor compared (angiotensin-II receptor; Gly for Pro substitution): significantly less than in SEQ ID NO:161
Sar-Arg-Val-Tyr-Ile-His-Gly-Cys-Thr ([Sar]RVYIHGCT; not fully specified (bridges); printed as Sar-Arg-Val-Tyr-Ile-His-Gly-Cys-Thr; also: oxorhenium(V) N3S1 metal chelate (Re=O)) [SEQ ID NO:160],–,–,% Inhibition at 1 μM (Angiotensin Receptor) (angiotensin-II receptor): 5%
[Chg][dW]CIT[Dap]AP[Orn]-NH2,–,0,% Inhibition at 1 μM Vasopressin-1 Receptor (Table 29) (vasopressin-1 receptor): 0%
[dChg][dW]CIT[Dap]AP[Orn]-NH2,–,0,% Inhibition at 1 μM Vasopressin-1 Receptor (Table 29) (vasopressin-1 receptor): 8%
